The values below come from the supplement of paper PMC7877785.

± gives the uncertainty stated by the source.

The data set can be described thus: self-splicing fitness, log relative to wild type (ln ratio); higher = more splicing; Tetrahymena group I intron in knt gene, E. coli kanamycin selection, DiMSum; sequences stand for … in CUCUCU…GGAGGGAAAAGUUAUCAGGCAUGCACCUGGUAGCUAGUCUUUAAACCAAUAGAUUGCAUCGGUUUAAAAGGCAAGACCGUCAAAUUGCGGGAAAGGGGUCAACAGCCGUUCAGUACCAAGUCUCAGGGGAAACUUUGAGAUGGCCUUGCAAAGGGUAUGGUAAUAAGCUGACGGACAUGGUCCUAACCACGCAGCCAAGUCCUAAGUCAACAGAUCUUCUGUUGAUAUGGAUGCAGUUCACAGACUAAAUGUCGGUCGGGGAAGAUGUAUUCUUCUCAUAAGAUAUAGUCGGACCUCUCCUUAAUGGGAGCUAGCGGAUGAAGUGAUGCAACACUGGAGCCGCUGGGAACUAAUUUGUAUGCGAAAGUAUAUUGAUUAGUUUUGGAGUACUCGUGGUCG
The gist of the method: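 A randomised library covering all eight P1ex-region intron nucleotides was built with the intron in the knt kanamycin-resistance gene on pET-22b(+) and held in E. coli BL21(DE3). Cells were grown overnight at 37°C or 30°C on LB agar, with or without 25 μg/mL kanamycin, plus 100 μg/mL carbenicillin, 50 μM IPTG and 0.2% rhamnose, and pooled colonies were amplicon-sequenced on an Illumina HiSeq 2500. DiMSum fitness is the error-weighted combination of wild-type-normalised replicate fold changes, kanamycin versus none.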

In the case of UUCAAGCAAUAUUACGAGUU, the “self-splicing fitness (ln)” value runs as follows: (30 °C) -2.6 ± 0.12; (37 °C) -0.389 ± 0.099.
In the case of UUCAAGCAAUAUUACGCACC, the “self-splicing fitness (ln)” value (37 °C) was -1.68 ± 0.49.
On the same count and under the same terms, the same measure for UUCAAGCAAUAUUACGGAAU: -2.57 ± 0.23.
As to UUCAAGCAAUAUUACGGACU, the “self-splicing fitness (ln)” value (30 °C) is -2.76 ± 0.17 and the “self-splicing fitness (ln)” value (37 °C) is -0.504 ± 0.13.
On to UUCAAGCAAUAUUACGGUUU, for which the “self-splicing fitness (ln)” value runs as follows: (30 °C) -3.08 ± 0.21; (37 °C) -1.84 ± 0.17.
With UUCAAGCAAUAUUACGUAAG, the “self-splicing fitness (ln)” value runs as follows: (30 °C) -1.89 ± 0.074; (37 °C) -0.866 ± 0.077.
Taken in the same sequence, the figures for UUCAAGCAAUAUUACGUAGA were -1.5 ± 0.094 and -0.928 ± 0.14.
Taken in the same sequence, the figures for UUCAAGCAAUAUUACGUAUC were -4.16 ± 0.24 and -1.85 ± 0.16.
As to UUCAAGCAAUAUUACGUCCG, the “self-splicing fitness (ln)” value runs as follows: (30 °C) -1.33 ± 0.095; (37 °C) -0.121 ± 0.14.
Taken in the same sequence, the figures for UUCAAGCAAUAUUACGUUCA were -0.938 ± 0.077 and -0.12 ± 0.077.
For the sequence UUCCAGCAAUAUUACGAAUG, the “self-splicing fitness (ln)” value runs as follows: (30 °C) -3.59 ± 0.19; (37 °C) -1.75 ± 0.15.
The like results for UUCCAGCAAUAUUACGAAUU were, in that order, -3.98 ± 0.18 and -2.05 ± 0.14.
Taken in the same sequence, the figures for UUCCAGCAAUAUUACGACAG were -1.39 ± 0.17 and -0.449 ± 0.18.
Taken in the same sequence, the figures for UUCCAGCAAUAUUACGCGGG were -3.83 ± 0.29 and -2.69 ± 0.29.
With UUCCAGCAAUAUUACGCUGC, the “self-splicing fitness (ln)” value reads like this: (30 °C) -3.79 ± 0.28; (37 °C) -2.09 ± 0.4.
Taken in the same sequence, the figures for UUCCAGCAAUAUUACGGAGA were -1.83 ± 0.084 and -0.628 ± 0.081.
As to UUCCAGCAAUAUUACGGCCC, the “self-splicing fitness (ln)” value (30 °C) is -2.34 ± 0.38.
Regarding UUCCAGCAAUAUUACGGCUA, the “self-splicing fitness (ln)” value reads like this: (30 °C) 0.12 ± 0.12; (37 °C) -0.25 ± 0.1.
The like results for UUCCAGCAAUAUUACGGGAG were, in that order, -3.38 ± 0.16 and -1.77 ± 0.14.
Regarding UUCCAGCAAUAUUACGGGUG, the “self-splicing fitness (ln)” value reads like this: (30 °C) -0.109 ± 0.058; (37 °C) -0.15 ± 0.076.
On to UUCCAGCAAUAUUACGUACA, for which the “self-splicing fitness (ln)” value is -1.11 ± 0.1 (30 °C) and -0.862 ± 0.12 (37 °C).
The like results for UUCCAGCAAUAUUACGUCAG were, in that order, -1.75 ± 0.077 and -1.19 ± 0.097.
The like results for UUCCAGCAAUAUUACGUCCG were, in that order, -2.28 ± 0.18 and 0.24 ± 0.2.
Consider UUCCAGCAAUAUUACGUCUG, for which the “self-splicing fitness (ln)” value was -2.71 ± 0.15 (30 °C) and -2.28 ± 0.24 (37 °C).
On to UUCCAGCAAUAUUACGUCUU, for which the “self-splicing fitness (ln)” value is, setting by setting: (30 °C) -2.64 ± 0.15; (37 °C) -2.27 ± 0.2.
Taken in the same sequence, the figures for UUCCAGCAAUAUUACGUGGA were -3.28 ± 0.24 and -2.95 ± 0.26.
The like results for UUCCAGCAAUAUUACGUUUA were, in that order, -0.628 ± 0.083 and -0.59 ± 0.075.
With UUCGAGCAAUAUUACGACCA, the “self-splicing fitness (ln)” value by setting is: (30 °C) -2.28 ± 0.43; (37 °C) -1.33 ± 0.28.
Take UUCGAGCAAUAUUACGACUA: the “self-splicing fitness (ln)” value by setting is: (30 °C) 0.544 ± 0.39; (37 °C) -1.15 ± 0.24.
For the sequence UUCGAGCAAUAUUACGAGGU, the “self-splicing fitness (ln)” value reads like this: (30 °C) -2.94 ± 0.48; (37 °C) -1.52 ± 0.43.
As to UUCGAGCAAUAUUACGCAUG, the “self-splicing fitness (ln)” value was -1.2 ± 0.23 (30 °C) and -2.21 ± 0.3 (37 °C).
UUCGAGCAAUAUUACGCUCC: under “30 °C”, the “self-splicing fitness (ln)” value was -3.27 ± 0.41.
As for UUCGAGCAAUAUUACGCUGC, the “self-splicing fitness (ln)” value (30 °C) was -3.44 ± 0.44.
The same measure, in the same setting: with UUCGAGCAAUAUUACGGCCC the figure was -1.75 ± 0.4.
In the case of UUCGAGCAAUAUUACGGGAG, the “self-splicing fitness (ln)” value by setting is: (30 °C) -3.53 ± 0.2; (37 °C) -2.84 ± 0.22.
For the sequence UUCGAGCAAUAUUACGGGGU, the “self-splicing fitness (ln)” value (30 °C) is -2.88 ± 0.35.
UUCGAGCAAUAUUACGGUAC: the “self-splicing fitness (ln)” value was -3.39 ± 0.27 (30 °C) and -2.62 ± 0.44 (37 °C).
In the case of UUCGAGCAAUAUUACGGUUG, the “self-splicing fitness (ln)” value (30 °C) is -3.78 ± 0.19 and the “self-splicing fitness (ln)” value (37 °C) was -2.47 ± 0.16.
Consider UUCGAGCAAUAUUACGUGCA, for which the “self-splicing fitness (ln)” value is -2.18 ± 0.19 (30 °C) and -1.4 ± 0.16 (37 °C).
Taken in the same sequence, the figures for UUCGAGCAAUAUUACGUGCG were -3.18 ± 0.23 and -2.18 ± 0.26.
In the case of UUCGAGCAAUAUUACGUGUG, the “self-splicing fitness (ln)” value is -2.52 ± 0.13 (30 °C) and -1.59 ± 0.12 (37 °C).
The like results for UUCGAGCAAUAUUACGUUAG were, in that order, -4.22 ± 0.42 and -3.37 ± 0.3.
Take UUCGAGCAAUAUUACGUUGA: the “self-splicing fitness (ln)” value (30 °C) was -2.77 ± 0.26 and the “self-splicing fitness (ln)” value (37 °C) was -2 ± 0.21.
Regarding UUCUAGCAAUAUUACGAACC, under “37 °C”, the “self-splicing fitness (ln)” value was -1.8 ± 0.33.
Take UUCUAGCAAUAUUACGAACG: the “self-splicing fitness (ln)” value by setting is: (30 °C) -3.61 ± 0.36; (37 °C) -1.15 ± 0.27.
Turning to UUCUAGCAAUAUUACGACGU, the “self-splicing fitness (ln)” value was -1.89 ± 0.12 (30 °C) and -1.12 ± 0.1 (37 °C).
Taken in the same sequence, the figures for UUCUAGCAAUAUUACGACUC were -3.11 ± 0.31 and -0.392 ± 0.14.
Taken in the same sequence, the figures for UUCUAGCAAUAUUACGAGAA were -2.54 ± 0.29 and -2.11 ± 0.29.
For the sequence UUCUAGCAAUAUUACGAGCA, the “self-splicing fitness (ln)” value (30 °C) is -0.992 ± 0.089 and the “self-splicing fitness (ln)” value (37 °C) is -0.124 ± 0.085.
Regarding UUCUAGCAAUAUUACGAUAG, under “37 °C”, the “self-splicing fitness (ln)” value is -2.05 ± 0.36.
Consider UUCUAGCAAUAUUACGAUCU, for which the “self-splicing fitness (ln)” value is, setting by setting: (30 °C) -2.84 ± 0.34; (37 °C) -2.52 ± 0.27.
Taken in the same sequence, the figures for UUCUAGCAAUAUUACGAUGC were -2.12 ± 0.3 and -2.86 ± 0.38.
The like results for UUCUAGCAAUAUUACGAUUG were, in that order, -3.24 ± 0.31 and -1.94 ± 0.21.
Taken in the same sequence, the figures for UUCUAGCAAUAUUACGCAAU were -2.27 ± 0.22 and -2.21 ± 0.32.
Take UUCUAGCAAUAUUACGCACC: the “self-splicing fitness (ln)” value was -2.54 ± 0.18 (30 °C) and -1.94 ± 0.23 (37 °C).
The like results for UUCUAGCAAUAUUACGCAGA were, in that order, -2.04 ± 0.32 and -1.1 ± 0.23.
Take UUCUAGCAAUAUUACGCGUA: the “self-splicing fitness (ln)” value is -1.15 ± 0.25 (30 °C) and -0.575 ± 0.21 (37 °C).
The like results for UUCUAGCAAUAUUACGCGUU were, in that order, -2.47 ± 0.15 and -1.9 ± 0.13.
The like results for UUCUAGCAAUAUUACGCUCU were, in that order, -1.9 ± 0.15 and -1.77 ± 0.15.
Turning to UUCUAGCAAUAUUACGCUUG, the “self-splicing fitness (ln)” value runs as follows: (30 °C) -4.24 ± 0.33; (37 °C) -2.67 ± 0.22.
Take UUCUAGCAAUAUUACGGAGG: the “self-splicing fitness (ln)” value (30 °C) was -3.17 ± 0.34.
UUCUAGCAAUAUUACGGAUC: the “self-splicing fitness (ln)” value reads like this: (30 °C) -2.3 ± 0.21; (37 °C) -0.989 ± 0.31.
Taken in the same sequence, the figures for UUCUAGCAAUAUUACGGCGA were -0.698 ± 0.14 and 0.493 ± 0.18.
Take UUCUAGCAAUAUUACGGGAU: the “self-splicing fitness (ln)” value is, setting by setting: (30 °C) -3.72 ± 0.29; (37 °C) -2.37 ± 0.3.
The like results for UUCUAGCAAUAUUACGGUCG were, in that order, -0.638 ± 0.067 and 0.00892 ± 0.09.
On to UUCUAGCAAUAUUACGGUCU, for which the “self-splicing fitness (ln)” value (37 °C) is -3.7 ± 0.36.
Consider UUCUAGCAAUAUUACGGUUU, for which the “self-splicing fitness (ln)” value is -2.05 ± 0.11 (30 °C) and -1.52 ± 0.12 (37 °C).
The like results for UUCUAGCAAUAUUACGUAAC were, in that order, -3.19 ± 0.33 and -1.32 ± 0.27.
As to UUCUAGCAAUAUUACGUAGU, the “self-splicing fitness (ln)” value (37 °C) is -1.6 ± 0.24.
Regarding UUCUAGCAAUAUUACGUAUA, the “self-splicing fitness (ln)” value reads like this: (30 °C) -1.28 ± 0.19; (37 °C) -0.787 ± 0.25.
The like results for UUCUAGCAAUAUUACGUUGU were, in that order, -3.15 ± 0.16 and -2.75 ± 0.18.
The like results for UUGAAGCAAUAUUACGAAGG were, in that order, -1.42 ± 0.13 and -0.248 ± 0.17.
As to UUGAAGCAAUAUUACGACAA, the “self-splicing fitness (ln)” value by setting is: (30 °C) 0.222 ± 0.087; (37 °C) 0.511 ± 0.12.
Taken in the same sequence, the figures for UUGAAGCAAUAUUACGAGCA were -0.381 ± 0.12 and 0.224 ± 0.14.
Regarding UUGAAGCAAUAUUACGCCAU, the “self-splicing fitness (ln)” value (30 °C) is -1.71 ± 0.086 and the “self-splicing fitness (ln)” value (37 °C) is -1.56 ± 0.12.
As for UUGAAGCAAUAUUACGCCGC, the “self-splicing fitness (ln)” value (37 °C) is -2.1 ± 0.43.
With UUGAAGCAAUAUUACGCGGA, the “self-splicing fitness (ln)” value is, setting by setting: (30 °C) -1.12 ± 0.12; (37 °C) -0.506 ± 0.14.
Taken in the same sequence, the figures for UUGAAGCAAUAUUACGCUCC were -4.04 ± 0.29 and -3.02 ± 0.31.
For UUGAAGCAAUAUUACGGAAU, the “self-splicing fitness (ln)” value is -3.36 ± 0.14 (30 °C) and -1.15 ± 0.12 (37 °C).
